Measured values as given in patent publication US20030079244A1, “Agent for treatment of exocrine gland disorders and transgenic mouse useful for screening the same” (R-TECH UENO, LTD., priority 1997, published 2003).

Columns and labels:
[1] = tested on: salivary gland epithelial cells; test: Cytotoxicity test against salivary gland epithelial cells (51Cr release); type: cell-based; details: CD4-positive T-cell effector cells treated with mouse IL-10 (0.1 mg/ml) with or without anti-FASL antibody (10 μg/ml); effector:target 20-fold; 4 hours at 37° C.; 51Cr in supernatant
Excerpt: Cytotoxicity test against salivary gland epithelial cells
Spleen isolated from a B6 mouse was chopped into small pieces, the cells were collected with a syringe having 22-gage injection needle and the collected cells were passed through a meshed screen to obtain cell suspension. CD4-positive T-cells were isolated from the cell suspension by means of dynabeads to provide effector cells.
Salivary gland of the same mouse as above was immersed in DMEM medium containing 10% fetal calf serum supplemented with collagenase (750 units/ml), EDTA (0.76 mg/ml) and hyaluronidase type IV (500 units/ml) to isolate the salivary gland tissue, and the obtained cells were incubated in DMEM medium containing 10% fetal calf serum for 10 to 14 days in a CO2 incubator. The cultured cells were then analyzed with flow-cytometry and were confirmed that 85-95% of them were epithelial cells, and were used as target cells.
The target cells were labeled with 51Cr. Half of the effector cells were treated with mouse IL-10 (0.1 mg/ml) alone, whereas the other half were treated with mice IL-10 (0.1 mg/ml) and anti mice Fas ligand (FASL) neutralizing antibody (10 μg/ml) . […]
The amount of 51Cr in the supernatant of the respective culture was measured and the cytotoxic ratio was calculated by subtracting the 51Cr amount of the target cells cultured without effector cells.

[2] = tested on: normal mouse spleen cells; test: Effect of IL-10 on the expression of Fas ligand (flow-cytometry); type: cell-based; details: treated in vitro, analyzed 48 hours after the treatment; versus non-stimulated cells
Description: In order to study the role of IL-10 in Fas-ligand expression, normal mouse spleen cells were isolated, treated with mouse recombinant IL-10 in vitro and then analyzed with flow-cytometry 48 hours after the treatment.

B1: IL-10: mouse interleukin-10 used to treat effector cells and spleen cells (protein, UniProt P18893 19-178, looked up)
Interleukin-10: SRGQYSREDNNCTHFPVGQSHMLLELRTAFSQVKTFFQTKDQLDNILLTDSLMQDFKGYLGCQALSEMIQFYLVEVMPQAEKHGPEIKEHLNSLGEKLKTLRMRLRRCHRFLPCENKSKAVEQVKSDFNKLQDQGVYKAMNEFDIFINCIEAYMMIKMKS
With B1 the cytotoxic ratio [1] was 29.5% and the Fas ligand expression [2] was “Significantly higher amount of Fas ligand expression”.
